Assay results published in patent publication US10864251B2, “Peptides of syndecan-1 for inhibiting angiogenesis” (Wisconsin Alumni Research Foundation, priority 2006, dated 2020).
Read-outs that look alike come from different tables or passages of the source. Where no end group is shown, it is not given here.

Tested on: human dermal microvascular endothelial cells (HMEC-1)
Assay type: cell-based
Procedure: FIGS. 6A-6H—Inhibition of B82L fibroblast and HMEC-1 cell attachment and spreading on VN by synstatin82-130. B82L fibroblasts, which rely on the αvβ5 integrin for attachment to VN, and human dermal microvascular endothelial cells, which rely on both the αvβ3 and αvβ5 integrins for attachment to VN, were plated in the absence of peptide (FIGS. 6A, 6E) or in the presence of 0.1 (FIGS. 6B, 6F), 0.3 (FIGS. 6C, 6G) or 1 μM (FIGS. 6D, 6H) synstatin82-130 for 2 hr and processed as described in FIG. 2.
FIGS. 10A-10D—Dependence of HMEC cell attachment and spreading on integrin activation by Sdc1 and its inhibition by SSTN. (FIG. 10A) HMECs were plated for 2 hr either on Sdc1-specific antibody B-B4 to engage Sdc1 or on VN (10 μg/ml coating concentration) to engage the αvβ3 and αvβ5 integrins. Blocking antibodies LM609 (10 μg/ml, specific for αvβ3) and P1F6 (10 μg/ml, specific for αvβ5), SSTN (0.5 μM) or recombinant mouse Sdc1 ectodomain (mS1ED, 5 μM) were added. The ligand mimetic antibody WOW1 was used to detect activated αvβ3 integrin on cells plated on B-B4. (FIG. 10B) HMECs were treated with siRNA oligo specific for human Sdc1 for 48 hr prior to plating on VN. Sdc1 expression was quantified by flow cytometry using human Sdc1-specific mAb B-B4 or a control mouse IgG. (FIG. 10C-10D) The percentage of cell attaching or attaching and spreading was quantified for HMECs, HAEC and MAECs plated on VN for 24 hr in the presence of mS1ED or SSTN, or after siRNA silencing of Sdc1 expression in the presence of mAb LM609 to block αvβ3 integrin, P1F6 to block αvβ5 integrin, or both antibodies.
FIG. 14—Activity of SSTN peptides. A diagram of SSTN82-130 used in our experiments is shown. The gray letters designate amino acids that are identical or highly conserved across species (mouse, human, rat, hamster). Shorter peptides have been tested using HMEC-1 endothelial cells for inhibition of […] mediated cell attachment and spreading in comparison to SSTN82-130.
Cell adhesion and spreading assays were performed with modification to the previous procedures (Lebakken and Rapraeger, 1996. Briefly, human plasma vitronectin or fibronectin at 10-30 μg/ml were applied to nitrocellulose-coated ten well slides (Erie Scientific) and incubated for 1-2 h at 37° C. Slides were blocked with 1.0% heat-denatured bovine serum albumin for a minimum of 30 min at 37° C. Cells were detached from the substratum using 5 mM EDTA in Tris-buffered saline and resuspended in HEPES-buffered culture medium containing 0.1% heat-denatured BSA. Cells were plated at a density of 15,000 cells per well and allowed to attach and spread for 2 h prior to fixation in 4% paraformaldehyde in CMF-PBS. For fluorescence microscopy, fixed cells were permeabilized in 0.2% Triton X-100, labeled with rhodamine-conjugated phalloidin and analyzed using fluorescence microscopy. For testing inhibition by recombinant mScd-1ED and synstatin82-130, cells were pre-incubated 10 min before plating in the presence of the inhibitor. […] LM609 was used as a specific block to αvβ3 and P1F6 was used as a specific blocker of αvβ5.
Finally, the inventors have examined HMEC-1 cells, which are immortalized human dermal microvascular endothelial cells. Microvascular endothelial cells are regarded as being the main source of endothelial cells that carry out angiogenesis in vivo. The HMEC-1 cells grown in serum-containing culture medium express Sdc1 (as noted earlier) and also express active αvβ3 and αvβ5 integrins. […]

Row | Molecule | IC50 (6 h) | IC50 (HMEC-1, αvβ3 and αvβ5 integrin-dependent, read-out: IC50, spreading on VN) | reduction of cell spreading (HMECs on vitronectin, 1-3 μM) | spreading on vitronectin (HMECs, 5.0 μM)
1 | SNTETAFTSVLPAGEKPEEGEPVLHVEAEPGFTARDKEKEVTTRPRETV [synstatin82-130] | ~0.1 µM |  |  | 
2 | S1ED: recombinant mouse Sdc1 ectodomain (amino acids 18-251), expressed in bacteria as GST fusion or 6×His-tagged protein (protein, left off: a dimerising Fc or GST, recombinant mouse Sdc1 ectodomain (amino acids 18-251), expressed in bacteria as GST fusion or 6×His-tagged protein) QPALPQIVAVNVPPEDQDGSGDDSDNFSGSGTGALPDTLSRQTPSTWKDVWLLTATPTAPEPTSSNTETAFTSVLPAGEKPEEGEPVLHVEAEPGFTARDKEKEVTTRPRETVQLPITQRASTVRVTTAQAAVTSHPHGGMQPGLHETSAPTAPGQPDHQPPRVEGGGTSVIKEVVEDGTANQLPAGEGSGEQDFTFETSGENTAVAAVEPGLRNQPPVDEGATGASQSLLDRK |  | 3 to 10 µM | 80-90% | blocks spreading as effectively as the combined antibody treatment
